Source: IntAct's records for PubMed 29039417

B1: Protein PTHB1 (Homo sapiens), Q3SYG4 (parent)
chain: MSLFKARDWWSTILGDKEEFDQGCLCLANVDNSGNGQDKIIVGSFMGYLRIFSPHPAKTGDGAQAEDLLLEVDLRDPVLQVEVGKFVSGTEMLHLAVLHSRKLCVYSVSGTLGNVEHGNQCQMKLMYEHNLQRTACNMTYGSFGGVKGRDLICIQSMDGMLMVFEQESYAFGRFLPGFLLPGPLAYSSRTDSFLTVSSCQQVESYKYQVLAFATDADKRQETEQQKLGSGKRLVVDWTLNIGEQALDICIVSFNQSASSVFVLGERNFFCLKDNGQIRFMKKLDWSPSCFLPYCSVSEGTINTLIGNHNNMLHIYQDVTLKWATQLPHIPVAVRVGCLHDLKGVIVTLSDDGHLQCSYLGTDPSLFQAPNVQSRELNYDELDVEMKELQKIIKDVNKSQGVWPMTEREDDLNVSVVVSPNFDSVSQATDVEVGTDLVPSVTVKVTLQNRVILQKAKLSVYVQPPLELTCDQFTFEFMTPDLTRTVSFSVYLKRSYTPSELEGNAVVSYSRPTDRNPDGIPRVIQCKFRLPLKLICLPGQPSKTASHKITIDTNKSPVSLLSLFPGFASQSDDDQVNVMGFHFLGGARITVLASKTSQRYRIQSEQFEDLWLITNELILRLQEYFEKQGVKDFACSFSGSIPLQEYFELIDHHFELRINGEKLEELLSERAVQFRAIQRRLLARFKDKTPAPLQHLDTLLDGTYKQVIALADAVEENQGNLFQSFTRLKSATHLVILLIALWQKLSADQVAILEAAFLPLQEDTQELGWEETVDAAISHLLKTCLSKSSKEQALNLNSQLNIPKDTSQLKKHITLLCDRLSKGGRLCLSTDAAAPQTMVMPGGCTTIPESDLEERSVEQDSTELFTNHRHLTAETPRPEVSPLQGVSE
partner: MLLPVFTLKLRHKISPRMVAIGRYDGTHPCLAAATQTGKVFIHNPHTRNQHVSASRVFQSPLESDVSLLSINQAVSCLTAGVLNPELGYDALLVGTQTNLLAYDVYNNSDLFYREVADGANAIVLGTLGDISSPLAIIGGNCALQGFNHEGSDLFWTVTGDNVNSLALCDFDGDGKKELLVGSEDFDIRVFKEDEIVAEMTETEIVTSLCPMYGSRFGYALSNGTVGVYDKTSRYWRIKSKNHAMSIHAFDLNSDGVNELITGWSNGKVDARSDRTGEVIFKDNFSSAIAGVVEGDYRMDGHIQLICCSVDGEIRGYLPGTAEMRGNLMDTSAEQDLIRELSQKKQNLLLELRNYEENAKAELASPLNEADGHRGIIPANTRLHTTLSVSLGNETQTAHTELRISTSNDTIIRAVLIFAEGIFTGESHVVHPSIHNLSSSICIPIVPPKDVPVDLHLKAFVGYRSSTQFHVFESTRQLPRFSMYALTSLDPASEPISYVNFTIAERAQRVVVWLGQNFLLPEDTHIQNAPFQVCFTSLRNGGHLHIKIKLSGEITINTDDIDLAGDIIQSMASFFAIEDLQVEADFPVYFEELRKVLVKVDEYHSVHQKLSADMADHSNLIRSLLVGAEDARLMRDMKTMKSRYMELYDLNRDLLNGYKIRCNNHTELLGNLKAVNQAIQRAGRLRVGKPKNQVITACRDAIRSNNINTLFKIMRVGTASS

Variants of: B1
Conditions: with bbs2_human BBS2, Q9BXC9

Variant	effect of a mutation on the interaction
E604A	with no effect
L752E	with no effect
R674P	disrupting interaction strength
S545A	with no effect
M839K	disrupting interaction strength
M839E	with no effect
F566A	with no effect
F566E	with no effect
I707K	with no effect
N503E	with no effect
S423E	with no effect
E647K	with no effect
Q760K	with no effect
L531E	with no effect
V485A	with no effect
V485K	with no effect
I523A	with no effect
N794A	with no effect
C816K	with no effect
C816A	with no effect
V856K	with no effect
V557E	with no effect
I534A	with no effect

Variant	effect of a mutation on the interaction
D573K	with no effect
D700E	with no effect
V413E	with no effect
H652K	with no effect
E769K	with no effect
Q597A	with no effect
E853K	with no effect
R521E	with no effect
I649E	with no effect
H732K	with no effect
E625A	with no effect
S637E	with no effect
Y703A	with no effect
L870E	with no effect
N614E	with no effect
N614A	with no effect
P497K	with no effect
I640K	with no effect
S787A	with no effect
L655E	with no effect
V489K	with no effect
V489E	with no effect
W741G	disrupting interaction strength

Variant	effect of a mutation on the interaction
L591A	with no effect
R598E	with no effect
L648E	with no effect
V506A	with no effect
Q672E	with no effect
V522A	with no effect
R683A	with no effect
T861E	with no effect
S849K	with no effect
Q717E	with no effect
Q742K	with no effect
A633E	with no effect
P691K	with no effect
L411A	with no effect
D773K	with no effect
Q764K	with no effect
C525K	with no effect
T836E	with no effect
E644K	with no effect
T473E	with no effect
L642E	with no effect
C783A	with no effect
Q471A	with no effect

Variant	effect of a mutation on the interaction
Q471K	with no effect
P847T	disrupting interaction strength
E615A	with no effect
E615K	with no effect
G841K	with no effect
T782E	with no effect
S820K	with no effect
V706A	with no effect
S570E	with no effect
F864A	with no effect
Q426K	with no effect
V575K	with no effect
L863K	with no effect
E878A	with no effect
V577K	with no effect
A730K	with no effect
Q677E	with no effect
R824K	with no effect
R528E	with no effect
Y495E	with no effect
A775K	with no effect
G638A	with no effect
G628K	with no effect
